For assay [1], the target named is APOBEC3C I188 (human) (UniProt Q9NRW3). Briefly: cross-linking; 0.5 μM protein with 10 μM BS3 in 20 mM Hepes pH 7.5, 150 mM NaCl, 1 mM DTT, 1 hour at 21°C; SDS-PAGE and Western blot with anti-APOBEC3C. In general terms: In western blotting, separated proteins are transferred to a membrane and probed.
Assay [2] has the same target. Nature of the assay: SEC; 10 μg of purified enzyme on a 10 mL Superdex 200 column; 50 mM Tris pH 8.0, 200 mM NaCl, 1 mM DTT; masses from a Bio-Rad standard curve; fractions read by SDS-PAGE and Western blot. For orientation: In gel filtration, larger molecules generally elute earlier.

As for “APOBEC3C I188 (from UniProt Q9NRW3 1-190) (enzyme)”, the stoichiometry N in the assay with APOBEC3C I188 (human) [1] and with APOBEC3C I188 (human) [2] was 2 in each case.
